{"source": "paper PMC13480645", "biological_target": "MERS-CoV S2 stem helix peptide (MERS-CoV)", "data": [{"substance": "S2P6 (antibody)", "values": [{"measurement": "IC50 of neutralisation of MERS-CoV pseudovirus (HeLa-hDPP4 cells)", "value": 8.37, "unit": "µg/mL"}]}]}
